We go through ten molecules from patent US7211395.

The target in this experiment is human serum albumin (HSA) (human), P02768. The experiment can be described thus: FP. The conditions noted are these: modification not given.
Broadly, the Kd is a measure of binding affinity in units of concentration. Low readings indicate higher affinity, high ones lower affinity. In turn, AEGTGDFWFCDRIAWYAQHLCEFLDPEGGGK [DX-236 Ala mutant 120] showed a Kd of 1300 nM.
For AEGTGDFWFCDRIAWYPAHLCEFLDPEGGGK [DX-236 Ala mutant 119] the value was 2200 nM.
To AEGTGDFAFCDRIAWYPQHLCEFLDPEGGGK [DX-236 Ala mutant 127] belongs 2300 nM; to AEGTGDFWFCDAIAWYPQHLCEFLDPEGGGK [DX-236 Ala mutant 124], 1500 nM; to AEGTGDFWFCDRIAWAPQHLCEFLDPEGGGK [DX-236 Ala mutant 121], 1400 nM.
For AEGTGDFWFCDRIAWYPQHACEFLDPEGGGK [DX-236 Ala mutant 117] the value was 2000 nM.
On to AEGTGDFWFCDRIAAYPQHLCEFLDPEGGGK [DX-236 Ala mutant 122], for which the Kd was found to be 1400 nM.
Take AEGTGDAWFCDRIAWYPQHLCEFLDPEGGGK [DX-236 Ala mutant 128]: the Kd worked out at 5100 nM.
For AEGTGAFWFCDRIAWYPQHLCEFLDPEGGGK [DX-236 Ala mutant 129] the value was 5100 nM; for AEGTGDFWFCARIAWYPQHLCEFLDPEGGGK [DX-236 Ala mutant 125], 5000 nM.
